# Source: the RNAGym collection of RNA variant scans (doi:10.1073/pnas.2313332121)
# Variants at the floor of the assay were thinned out.
# B1: TPR 5TU (parent)
# chain: GGAUCUUCUCGAUCUAACAAAAAAGACAAAUCUGCCACAAAGCUUGAGAGCAUCUUCGGAUGCAGAGGCGGCAGCCUUCGGUGGCGCGAUAGCGCCAACGUUCUCAACUAUGACACGCAAAACGCGUGCUCCGUUGAAUGGAGUUUAUCAUG
# Variants of: B1
# Test: polymerase ribozyme fitness, log enrichment relative to wild type (log ratio); higher = more active; in vitro selection for triplet polymerase activity
# How it was run: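 Frozen incubation at −7 °C formed the core of a single, triplicate in vitro selection round applied to PCR-built, transcribed mutant libraries of each subunit of a heterodimeric triplet polymerase ribozyme. Extended constructs were gel-excised, captured with streptavidin beads and amplified by RT-PCR, and input and output libraries were Illumina-sequenced with a filter of ≥10 input reads and ≥1 read per output. Fitness is the logarithm of genotype enrichment relative to wild-type enrichment, with inverse-variance-weighted replicate averaging, and the logarithm is base 2.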
row,Variant,polymerase ribozyme fitness (log ratio)
1,C14U C54U C57U C72U G83A,-4.05
2,C14U A115G,-2.56
3,C14G C18U C57U G65A G83A A106C G117U,≤ -4.2
4,C14U A29U G71A G88C C93A,≤ -4.2
5,C14U A19U U55A,-1.9
6,C14U A122G,-1.71
7,C14U A20U A24U G42A A49C C57A A60C U104G C114A A115C,≤ -4.2
8,C14G U148A,-4.14
9,C14U C54U G68C G84C C87G A91C A147C,≤ -4.2
10,C14G G48C A49G U53A G92U C93U A107U,≤ -4.2
11,C14G U15G A19C A22C A41G G58C C93U,-3.91
12,C14G C87U C149A,≤ -4.2
13,C14G A39U G58A U61G C85U C95U A107C G141C U146C,≤ -4.2
14,C14G C57A C85U C99A C123U,-3.49
15,C14U A40G U56A G59C C76U A121U,-4.02
16,C14U A28U C51G A97G,≤ -4.2
17,C14G C32U G48A C103U U127C,≤ -4.2
18,C14G G25U C36A U55G G65C C75U G141C,≤ -4.2
19,C14G C93A,-3.68
20,C14G C35A A60G U130C U134C,≤ -4.2
21,C14G C27U G48A C57A A60U G88C A106U,≤ -4.2

row,Variant,polymerase ribozyme fitness (log ratio)
1,C14G U31G,-2.12
2,C14G G65U G67U G133A U135A,≤ -4.2
3,C14U C32G U33G A47U U53A G74A C95G A106G U135A,≤ -4.2
4,C14G G83A C96U A110G A142U U148A,≤ -4.2
5,C14G G59A C87U,-3.82
6,C14G C18U U144C,-2.22
7,C14U A17G G70C G80A A137U,≤ -4.2
8,C14G C85A C116U A122C,≤ -4.2
9,C14G A89U C99A A107C,≤ -4.2
10,C14G C131U,-1.27
11,C14G G84A,-2.16
12,C14U C27G G94C G133U A150G,≤ -4.2
13,C14U A16C C51U A52G C93U C116A A121C,-1.81
14,C14G U53A C54A U61G G62U U146C,≤ -4.2
15,C14G G50A G58C U82C G141C,-4.17
16,C14G A41U G62C C95U C96A G112U A142U U146A A150G,≤ -4.2
17,C14G C51U U61A,-4.06
18,C14G C18G U82G G84C,≤ -4.2
19,C14G C32G G141U A147C,≤ -4.2
20,C14G C32G,-4.17
21,C14G U82C,-3.65

row,Variant,polymerase ribozyme fitness (log ratio)
1,C14U A52C U56A A97U A98U,-4.07
2,C14U C18G C32G A66C C93U A98U,≤ -4.2
3,C14G C36U U45G G59A C95U A97G A98U C125A U139G,-4.03
4,C14G C95G C96G,-4.07
5,C14G A91U A97G,-3.96
6,C14G A49G,-2.92
7,C14U A47C G50A G70A U77C C85A C125G C132A A142U,≤ -4.2
8,C14U A16C C57G G83U C85U A107G G140C A142C,≤ -4.2
9,C14U A64G A91U C105G,≤ -4.2
10,C14G C87G A107G,≤ -4.2
11,C14G G83A U90G G92U U102G C105A C118U A120C U146G,≤ -4.2
12,C14G C18U C38U U53C G58A U90G C93G A115C C118U A137U,≤ -4.2
13,C14U C76A C85U,-2.67
14,C14G A37C,-3.05
15,C14G C43A G88U A110U G112C U127G,≤ -4.2
16,C14G A30U U61A G92A C99A A115G,≤ -4.2
17,C14G A73G C79G A98G G143C,≤ -4.2
18,C14U C18A A19C A22G C93A A120C U139C G143U,≤ -4.2
19,C14G U33C G84U G94A,-4.16
20,C14U C54U G84A G133U,-3.87
21,C14G U127G,-4.18

row,Variant,polymerase ribozyme fitness (log ratio)
1,C14G C18U A52G G81U G92A C131G,≤ -4.2
2,C14G C63U G67C U77A C85A G124C,≤ -4.2
3,C14U A28U A122G G141C,-4.15
4,C14G A137U,≤ -4.2
5,C14U A26C G48C U53G C54A C93A U145A U148C,≤ -4.2
6,C14U C54U C87A A89G C96U A121U A142C,≤ -4.2
7,C14G C27G G94A,≤ -4.2
8,C14U A41C C75G G84U C118A,≤ -4.2
9,C14G G59C C69A A142G,≤ -4.2
10,C14U A20C U33A C93G C103G C118U,≤ -4.2
11,C14G U31A G68A G86A A91G C108A C118G,≤ -4.2
12,C14U C63U C85A A115G,-3.56
13,C14U C35U C85U A106G A115G,-3.81
14,C14G U31A G136A,-2.23
15,C14U A73U U78G C87G A122U C123U,≤ -4.2
16,C14U C27G A37U A39G A66C U77A U78G C85U A89U C95G,≤ -4.2
17,C14G U56G C57U C63U C72U U151G,≤ -4.2
18,C14U A138C,-3.75
19,C14G C85A C95G C103U U146A,≤ -4.2
20,C14U C18A A20C C93A G136A A142C,-2.57
